Test results: US9248180B2, “IC31 nanoparticles” (Valneva Austria GmbH, priority 2010, dated 2016)
Where “and” joins values, the source holds several entries; their conditions need not be identical. Equal values may be shown once.

Columns and labels:
[1] = Viscosity and sterile-filterability of KLK in 10 mM Tris as a function of pH; format: physicochemical; conditions: for Viscosity (cP): 2000 nmol/mL KLK in 10 mM Tris, no salt; for Sterile-filterable: 0.2 μm filter
Protocol: For sterile filtration, appropriate viscosity of the mixture to be filtered is also critical. Viscosity can be measured e.g. on a Brookfield DV-E rotation viscometer at 20° C. using an LV61 spindle and can be reported as centipoise (cP=milliPascal seconds). Preferred compositions have a viscosity of less than 15 cP. Even more preferred compositions have viscosities of less than 12 cP or even less than 10 cP.
One of the key factors for sterile-filterable compositions is viscosity. At a viscosity >15 cP, sterile filtration through a 0.2 μm filter is no longer possible. The final viscosity of the nanoparticulate IC31® composition correlates to the final pH of the composition due to the fact that the viscosity of KLK in solution increases drastically with increasing pH, resulting in non-sterile-filterable formulations at a final pH of around 7.2.

[2] = tested on: CD8+ cells from the lungs; test: Cytometric Bead Array of cytokines produced by CD8+ lung cells of vaccinated mice; format: in vivo, C57BL/6 mice; conditions: immunizations d0, d13, d28
[3] = CD8+ lung cells stimulated with Medium
[4] = CD8+ lung cells stimulated with SVN19-28
[5] = CD8+ lung cells stimulated with TRP-2180-188

Sequence: KLKLLLLLKLK [peptide component of IC31®]
- Viscosity (cP) ([1]; pH 6.24): 9.69 cP
- Sterile-filterable ([1]; pH 6.24): Yes
- Viscosity (cP) ([1]; pH 6.4): 8.06 cP
- Sterile-filterable ([1]; pH 6.4): Yes
- Viscosity (cP) ([1]; pH 6.6): 10.00 cP
- Sterile-filterable ([1]; pH 6.6): Yes
- Viscosity (cP) ([1]; pH 6.73): 10.00 cP
- Sterile-filterable ([1]; pH 6.73): Yes
- Viscosity (cP) ([1]; pH 6.88): 10.94 cP
- Sterile-filterable ([1]; pH 6.88): Yes
- Viscosity (cP) ([1]; pH 7.03): 11.25 cP
- Sterile-filterable ([1]; pH 7.03): Yes
- Viscosity (cP) ([1]; pH 7.22): 15.00 cP
- Sterile-filterable ([1]; pH 7.22): Yes/No*
- Viscosity (cP) ([1]; pH 7.39): 16.88 cP
- Sterile-filterable ([1]; pH 7.39): No
- Viscosity (cP) ([1]; pH 7.7): 16.88 cP
- Sterile-filterable ([1]; pH 7.7): No
- Viscosity (cP) ([1]; pH 7.96): 25.00 cP
- Sterile-filterable ([1]; pH 7.96): No
- Viscosity (cP) ([1]; pH 8.4): 21.88 cP and 24.38 cP
- Sterile-filterable ([1]; pH 8.4): No
- Viscosity (cP) ([1]; pH 8.8): 87.50 cP
- Sterile-filterable ([1]; pH 8.8): No

Sequence: SVYDFFVWL [TRP-2180-188]
- GM-CSF [2, 3]: 46 pg/mL
- IFN-γ [2, 3]: 41 pg/mL
- IL-6 [2, 3]: 109 pg/mL
- TNF-α [2, 3]: 14 pg/mL
- GM-CSF [2, 4]: 57 pg/mL
- IFN-γ [2, 4]: 199 pg/mL
- IL-2 [2, 4]: 43 pg/mL
- IL-6 [2, 4]: 115 pg/mL
- TNF-α ([2]; CD8+ lung cells stimulated with SVN19-28de): 9 pg/mL
- GM-CSF [2, 5]: 48 pg/mL
- IFN-γ [2, 5]: 301 pg/mL
- IL-2 [2, 5]: 33 pg/mL
- IL-6 [2, 5]: 185 pg/mL
- IL-10 [2, 5]: 56 pg/mL
- TNF-α [2, 5]: 24 pg/mL
